Source: paper PMC10522771, “The C-terminal transactivation domain of MITF interacts promiscuously with co-activator CBP/p300” (Scientific Reports, 2023)

T1: MITF_(CTERM) (UniProt O75030-9 289-419)
T1 construct: numbers count on: the MITF-M isoform; 15N-labelled for the NMR titration; also called C-terminal MITF-M; MITF C-terminal region; source: E. coli BL21 (DE3), purified (Ni-NTA, TEV cleavage, Q-Sepharose)
T1 sequence (looked up): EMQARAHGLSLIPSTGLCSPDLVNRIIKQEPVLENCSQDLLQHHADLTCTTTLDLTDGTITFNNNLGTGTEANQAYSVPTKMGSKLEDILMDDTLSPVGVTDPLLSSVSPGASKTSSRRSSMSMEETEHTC

T2: MITF_(ΔThr-rich) (UniProt O75030-9 289-419, Δ334–345)
T2 construct: numbers count on: the MITF-M isoform; The methods print Δ334–354; the legend, the results and the canonical numbers (Δ441–452) give Δ334–345; also called Δ334–345; deletion of the threonine-rich region; source: E. coli BL21 (DE3), purified (Ni-NTA, TEV cleavage, Q-Sepharose)
T2 sequence (looked up): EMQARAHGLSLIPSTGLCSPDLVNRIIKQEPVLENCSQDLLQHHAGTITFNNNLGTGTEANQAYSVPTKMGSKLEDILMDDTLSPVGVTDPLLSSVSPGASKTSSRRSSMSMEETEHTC

T3: MITF_(ΔAcidic) (UniProt O75030-9 289-419, Δ372–381)
T3 construct: numbers count on: the MITF-M isoform; also called Δ372–381; deletion of the acidic region; source: E. coli BL21 (DE3), purified (Ni-NTA, TEV cleavage, Q-Sepharose)
T3 sequence (looked up): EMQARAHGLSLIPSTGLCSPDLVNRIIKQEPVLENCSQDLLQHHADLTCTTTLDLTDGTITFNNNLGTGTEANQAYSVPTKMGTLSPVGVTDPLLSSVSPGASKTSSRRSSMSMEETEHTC

T4: MITF_(ΔSer-rich) (UniProt O75030-9 289-419, Δ394–411)
T4 construct: numbers count on: the MITF-M isoform; The methods print Δ372–381 for this variant too; the legend, the results and the canonical numbers (Δ501–518) give Δ394–411; also called Δ394–411; deletion of the serine-rich region; source: E. coli BL21 (DE3), purified (Ni-NTA, TEV cleavage, Q-Sepharose)
T4 sequence (looked up): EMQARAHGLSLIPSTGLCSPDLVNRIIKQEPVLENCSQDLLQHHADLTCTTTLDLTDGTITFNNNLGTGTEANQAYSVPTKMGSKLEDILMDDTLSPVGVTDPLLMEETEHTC

B1: TAZ1 domain of CBP/p300 (domain or fragment)
chain: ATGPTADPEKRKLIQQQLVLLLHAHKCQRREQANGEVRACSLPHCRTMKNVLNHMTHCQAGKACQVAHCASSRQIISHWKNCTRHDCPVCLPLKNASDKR
modifications: three structural Zn2+ ions expected; the paper does not state CBP or p300, species or limits (described in a cited paper); mouse CBP TAZ1 340-439 taken by convention
B2: TAZ2 domain of CBP/p300 (domain or fragment)
chain: GDSRRLSIQRCIQSLVHACQCRNANCSLPSCQKMKRVVQHTKGCKRKTNGGCPICKQLIALCCYHAKHCQENKCPVPFCLNI

Experiments:
Assay in all cases: ITC; 400 µM TAZ1 or TAZ2 in the syringe injected into 16–30 µM MITF construct in the cell; 20 mM TRIS pH 8, 25 mM NaCl, 5 mM βME, 10 µM ZnCl2; 30 °C; single-binding-site fit; duplicate
Settings in all cases: both partners purified
MITF_(CTERM) = target: T1, MITF_(CTERM)
MITF_(ΔThr-rich) = target: T2, MITF_(ΔThr-rich)
MITF_(ΔAcidic) = target: T3, MITF_(ΔAcidic)
MITF_(ΔSer-rich) = target: T4, MITF_(ΔSer-rich)

Row | Binder | Kd (MITF_(CTERM)) | Kd (MITF_(ΔThr-rich)) | Kd (MITF_(ΔAcidic)) | Kd (MITF_(ΔSer-rich))
1 | B1 | 5000 ± 310 nM |  |  | 
2 | B2 | 760 ± 50 nM | 410 ± 20 nM | 7240 ± 700 nM | 2260 ± 90 nM
